Experimental data as given in PMC7653511 (Journal of immunology (Baltimore, Md. : 1950), 2020).

How the values were obtained:
[1] = target: HLA-E*01:01 heavy chain with human β2-microglobulin (human); test: HPLC size exclusion chromatography peptide competition binding assay
[2] = target: HLA-E*01:03 heavy chain with human β2-microglobulin (human); test: as above
[3] = target: HLA-E*01:01 heavy chain with human β2-microglobulin (human); test: HPLC size exclusion chromatograph
[4] = target: HLA-E*01:03 heavy chain with human β2-microglobulin (human); test: HPLC size exclusion chromatograph
HLA-E = settings: no reference given; cited from earlier work
[5] = Aggregation of the proteins with norleucine fluorescent standard peptide; format: physicochemical; settings: norleucine vs methionine in position 2 of fluorescent standard peptide
HLA-E*01:01 = HLA-E*01:01 (Homo sapiens, UniProt P13747, G128R); test: UV-mediated peptide exchange binding assay; settings: s/p ratio, at least two independent experiments
HLA-E*01:03 = HLA-E*01:03 (Homo sapiens, UniProt P13747); test: UV-mediated peptide exchange binding assay; settings: s/p ratio, at least two independent experiments
Mamu-E = format: binding, rhesus macaques; settings: s/p ratio, at least two independent experiments
Qa-1^b = Qa-1^b (Mus musculus, UniProt P06339); test: UV-mediated peptide exchange binding assay; set-up: species or system mice; settings: s/p ratio, at least two independent experiments

Row | Substance | Effect of alanine substitution on binding (HLA-E*01:01) | Effect of alanine substitution on binding (HLA-E*01:03) | Effect of alanine substitution on binding (Mamu-E) | Effect of alanine substitution on binding (Qa-1^b) | other results
1 | Qdm (peptide) |  |  |  |  | IC50 [1]: < 100 µM; IC50 [2]: < 100 µM
2 | VL9 (peptide) |  |  |  |  | IC50 [3]: < 100 µM; IC50 [4]: < 100 µM
3 | VLAPRTLLL [pCMV] |  |  |  |  | Known binding to HLA-E of control peptides (HLA-E): high binding capacity to HLA-E
4 | VXAPCTLLL |  |  |  |  | Unspecific aggregation of the proteins [5]: reduced unspecific aggregation of the proteins
5 | pCMV P2-Ala: pCMV with Ala in position 2 (VAAPRTLLL) | considerable loss of binding | considerable loss of binding | considerable loss of binding | considerable loss of binding | 
6 | pCMV P7-Ala: pCMV with Ala in position 7 (VLAPRTALL) | complete or almost complete loss of binding | complete or almost complete loss of binding | complete or almost complete loss of binding | complete or almost complete loss of binding | 
7 | pCMV P9-Ala: pCMV with Ala in position 9 (VLAPRTLLA) | complete or almost complete loss of binding | complete or almost complete loss of binding | complete or almost complete loss of binding | complete or almost complete loss of binding | 
